Experimental findings from patent publication US20150140009A1 are described below.

Assay [1] concerns the target TNFR2/p75 on BM-derived EPCs of TNFR1/p55 knockout mice (mouse) (UniProt P25119). Kind of assay: cell-based or functional assay.
The target in assay [2] is TNF-α in conditioned medium of 1 Gy γ-irradiated mouse BM-derived EPCs (IR-CM) (mouse) (UniProt P06804). The assay is described as follows: cell-based or functional assay.
Chain of UniProt P06804 (P06804 80-235 limits assumed): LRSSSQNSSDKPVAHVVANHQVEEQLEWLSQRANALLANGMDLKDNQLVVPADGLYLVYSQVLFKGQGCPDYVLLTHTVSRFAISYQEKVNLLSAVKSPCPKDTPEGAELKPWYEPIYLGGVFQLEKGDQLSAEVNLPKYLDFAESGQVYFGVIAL

Chain of UniProt P25119 (P25119 23-474): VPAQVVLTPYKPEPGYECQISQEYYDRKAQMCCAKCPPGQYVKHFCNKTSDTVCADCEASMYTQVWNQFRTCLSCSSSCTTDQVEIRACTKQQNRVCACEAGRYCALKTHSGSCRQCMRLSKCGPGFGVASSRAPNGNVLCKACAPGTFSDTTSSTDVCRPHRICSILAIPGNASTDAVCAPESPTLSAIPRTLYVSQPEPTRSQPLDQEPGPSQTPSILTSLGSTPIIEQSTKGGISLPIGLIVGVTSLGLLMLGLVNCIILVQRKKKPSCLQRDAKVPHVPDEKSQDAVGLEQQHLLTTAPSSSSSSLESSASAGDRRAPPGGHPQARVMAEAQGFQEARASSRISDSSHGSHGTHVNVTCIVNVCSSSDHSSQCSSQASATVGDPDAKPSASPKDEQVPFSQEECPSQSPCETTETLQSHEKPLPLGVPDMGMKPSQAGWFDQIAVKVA

As for “mouse recombinant TNF-α (Cat. 34-8321-82; eBiosciences) (from UniProt P06804 80-235) (ligand)”, the mean p-H2AX foci/cell count, naïve p55KO EPCs, 24 h with TNF (100 pg/ml, 1, 40 ng/ml), all cells counted; control 0.98 in assay [1] was in the range of 2.8 to 3.9 foci/cell.

Take “TNF-α neutralizing antibody (Cat. 506309, BioLegend)”: in assay [2], the formation of p-H2AX foci in EPCs treated with γ-IR conditioned media after neutralizing TNF is 2 fold; the mean p-H2AX foci/cell, naïve WT EPCs, 24 h treatment with 3-day IR-CM treated with TNF-α neutralizing antibody turned out to be 3.2 foci/cell; the mean p-H2AX foci/cell, naïve WT EPCs, 24 h treatment with 5-day IR-CM treated with TNF-α neutralizing antibody amounted to 3.5 foci/cell; the mean p-H2AX foci/cell, naïve WT EPCs, 24 h treatment with 1 h IR-CM treated with TNF-α neutralizing antibody worked out at 2.4 foci/cell. Also, in assay [2], the mean p-H2AX foci/cell, naïve WT EPCs, 24 h treatment with 5 h IR-CM treated with TNF-α neutralizing antibody stood at 4.3 foci/cell; the mean p-H2AX foci/cell, naïve WT EPCs, 24 h treatment with 24 h IR-CM treated with TNF-α neutralizing antibody turned out to be 5 foci/cell; the mean p-H2AX foci/cell, naïve p55KO EPCs, 24 h treatment with 3-day IR-CM treated with TNF-α neutralizing antibody stood at 4.9 foci/cell; the mean p-H2AX foci/cell, naïve p55KO EPCs, 24 h treatment with 5-day IR-CM treated with TNF-α neutralizing antibody turned out to be 3.5 foci/cell. In assay [2], the mean p-H2AX foci/cell, naïve p55KO EPCs, 24 h treatment with 1 h IR-CM treated with TNF-α neutralizing antibody turned out to be 3.7 foci/cell; the mean p-H2AX foci/cell, naïve p55KO EPCs, 24 h treatment with 5 h IR-CM treated with TNF-α neutralizing antibody was 3.6 foci/cell; the mean p-H2AX foci/cell, naïve p55KO EPCs, 24 h treatment with 24 h IR-CM treated with TNF-α neutralizing antibody came out at 4.2 foci/cell.
